In patent US12187807B2, “Antibody molecules to C5AR1 and uses thereof” (Visterra, Inc., priority 2020, dated 2025):
Numbering of substitutions follows the chain as printed.

Assays:
[1] = biological target: T1, C5aR1 mutants (N-terminus, ECL1, ECL2, ECL3) (Homo sapiens, UniProt P21730, D10A/K279N); assay: Alanine scanning / mutagenesis epitope mapping of C5aR1; format: binding; settings: D10A
T1 sequence (P21730 with tags, fused parts or gaps D10A/K279N): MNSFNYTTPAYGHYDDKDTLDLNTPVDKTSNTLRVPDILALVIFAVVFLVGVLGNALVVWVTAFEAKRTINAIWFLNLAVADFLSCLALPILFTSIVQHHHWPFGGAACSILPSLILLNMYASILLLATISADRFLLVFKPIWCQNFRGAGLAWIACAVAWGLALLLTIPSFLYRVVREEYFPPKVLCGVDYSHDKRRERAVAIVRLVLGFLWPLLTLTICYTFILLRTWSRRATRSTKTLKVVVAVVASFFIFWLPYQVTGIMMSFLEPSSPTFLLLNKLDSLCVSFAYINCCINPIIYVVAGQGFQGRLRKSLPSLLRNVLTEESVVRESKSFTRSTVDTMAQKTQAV
Method in brief: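 C5aR1 variants carried single alanine substitutions or introduced N-glycosylation sites across the N-terminus, ECL1, ECL2 and ECL3. Binding of individual monoclonal antibody clones to each mutant was assessed to map core epitopes. Sulfation of tyrosines 11 and 14 was considered for the site I binders.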

[2] = biological target: T2, C5aR1 (human neutrophils) (Homo sapiens, UniProt P21730); assay: C5a induced chemotaxis (transwell), human neutrophils; format: cell-based; settings: 1, 10, or 100 nM antagonist, C5a 10^−6 to 10^−9.5 M
T2 construct: neutrophils isolated from whole blood; host or cells: human neutrophils (cryopreserved, or isolated from whole blood)
T2 sequence (P21730 1-350): T1 sequence (P21730 with tags, fused parts or gaps D10A/K279N) with N2D, A10D, N279K
From the text: One of the primary mechanisms by which neutrophils migrate to the site of inflammation is by chemotaxis induced by a C5a/C5adesArg gradient is detected by C5aR1 signaling. Anti-C5aR1 antibodies were thus assessed in a chemotaxis assay for their ability to block C5a induced migration of neutrophils. The assay involved cell migration in a double chamber well separated by filters. The cells and inhibitors were applied into the upper chamber and the lower chamber was filled with the chemoattractant, causing the cells to migrate to the lower chamber. The inhibition activity was evaluated by counting the migrated cell numbers. Specifically, a titration of C5a was added to the bottom chamber a 96 transwell plate. Cells expressing human C5aR1 (C5aR1-U937 cells or human neutrophils) were incubated with or without antagonist and then seeded into the top chamber of the transwell plate. The cells were incubated for 2 hours. Cells that migrated to the bottom chamber were quantified using the CyQUANT cell proliferation kit following the manufacturer's protocol. […]
Anti-C5aR1 antibodies were assessed in a chemotaxis assay for their ability to block C5a induced migration of neutrophils. […] The inhibition activity was evaluated by counting the migrated cell numbers. […] Cells that migrated to the bottom chamber were quantified using the CyQUANT cell proliferation kit following the manufacturer's protocol. […]

B1: clone 583: anti-C5aR1 Site I antibody; VH SEQ ID NO: 536, VL SEQ ID NO: 595 (antibody, V domains shown)
VH: EVQLVESGGGLVKPGGSLKLSCAASGFTFNAYAMSWVRQTPEKRLEWVASISTGGNTYCPDSVKDRFTVSRDNVRNILYLQMSSLRSEDTAMYYCTRGYQRFSGFAYWGQGTLVTVS
VL: DVVMTQTPLSPPVSLGYQASISCRSSQSLVHSNGNTYLNWYLQKPGQSPKLLIYKVSNRLSGVPDRFSGSGSGTDFTLKISRVETEDLGVYFCSQSTHVPYTFGGGTKLEIK
- binding to C5aR1 mutant [1]: moderately reduce binding

B2: clone 329: anti-C5aR1 Site II antibody; VH SEQ ID NO: 492, VL SEQ ID NO: 552 (antibody, V domains shown)
VH: QVQLQQSGAELTKPGASVKLSCKASGYTFTNYWMHWVKQRPGQGLEWIGYLNPSSGYTKYNQKFKDKATLTADKSSSTAYMQLNSLTYEDSAVYYCTRSGGDNYGNPYYFDRWGQGTTVTVSS
VL: DVVMTQTPLSLTVSLGDQASISCRSSQSLVHSNGNTYLHWYLQKPGQSPKFLIYKVSNRFSGVPDRFSGSGSGTDFRLKISRVEAEDLGVYFCSQSTLVPLTFGAGTKLEIK
- inhibition of human neutrophil chemotaxis [2]: strongest effects
